Assay results as given in article PMC6843132, “The Plant NF-Y DNA Matrix In Vitro and In Vivo” (Plants, 2019).

T1: At NF-YB2/NF-YC3 histone fold domain (HFD) dimer (A. thaliana, UniProt Q9FGJ3 24-116; Q9ZVL3 55-148)
T1 construct: Nuclear factor Y subunit B2 (AtNF-YB2), Arabidopsis thaliana, aa 24-116, histone fold domain; Nuclear factor Y subunit C3 (AtNF-YC3), Arabidopsis thaliana, aa 55-148, histone fold domain; Preformed heterodimer; the 6His tag was removed with thrombin before gel filtration; also called AtNF-YB2/AtNF-YC3; HFD subunits; source: E. coli, co-expressed, purified (IMAC, thrombin cleavage, gel …)
T1 sequence (looked up) 1: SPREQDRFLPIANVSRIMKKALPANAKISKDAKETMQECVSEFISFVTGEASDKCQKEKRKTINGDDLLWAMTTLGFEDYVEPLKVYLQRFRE
T1 sequence (looked up) 2: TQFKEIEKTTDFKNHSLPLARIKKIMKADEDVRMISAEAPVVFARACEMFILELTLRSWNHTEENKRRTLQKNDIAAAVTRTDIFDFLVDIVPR


Target: T1, At NF-YB2/NF-YC3 histone fold domain …
Experiment: native gel or EMSA; NF-YA subunit (60-240 nM) with HFD dimer (30 nM) and Cy5-labelled 31 bp CAB2 CCAAT DNA probe (20 nM); 12 mM Tris-HCl pH 8.0, 50 mM NaCl, 50 mM KCl, 5 mM MgCl2, 30 °C 30 min; 6% polyacrylamide, 0.25X TBE; trimer read out as the shifted DNA complex
Details: both partners purified

| binding result | Binder |
| --- | --- |
| binds | AtNF-YA6-6His (aa 170-237) (domain or fragment, Nuclear factor Y subunit A6 (AtNF-YA6), Arabidopsis thaliana, aa 170-237, evolutionarily conserved domain; source: E. coli, purified (IMAC); not shown: His6, C-terminal, kept) not shown |
| binds | AtNF-YA2-6His (aa 134-207) (domain or fragment, Nuclear factor Y subunit A2 (AtNF-YA2), Arabidopsis thaliana, aa 134-207, evolutionarily conserved domain; source: E. coli, purified (IMAC); not shown: His6, C-terminal, kept) not shown |
